According to paper PMC9876797, “Structures of the holo CRISPR RNA-guided transposon integration complex” (Nature, 2022):
“And” between values parts separate entries of the source, which are not always exact repeats. Equal entries are not always repeated.

How the values were obtained:
[1] = molecular target: T1, ShCAST transpososome (TnsC in complex with TnsB, TniQ, Cas12k and S15) (Scytonema hofmannii, UniProt A0A8J0PCL3); test: cryo-EM structure; type: binding; details: ATP with Mg2+ in all TnsC protomers; 1 mM ATP, 15 mM MgCl2, pH 7.5; also minor configuration 8EA4
T1 construct: recombinant proteins from E. coli, TwinStrep-SUMO vectors; assembled on sgRNA and strand-transfer DNA; about 961 kDa; 12 TnsC (major) or 13 TnsC (minor); S15 from E. coli K-12 MG1655; with Transposase TnsB; TniQ family protein TniQ; CRISPR-associated effector Cas12k; Small ribosomal subunit protein uS15 (Escherichia coli K-12 MG1655)

[2] = molecular target: TnsC (ShCAST AAA+ regulator) (Scytonema hofmannii)
Target sequence in this assay (A0A8J0PCL3 entry or part of it): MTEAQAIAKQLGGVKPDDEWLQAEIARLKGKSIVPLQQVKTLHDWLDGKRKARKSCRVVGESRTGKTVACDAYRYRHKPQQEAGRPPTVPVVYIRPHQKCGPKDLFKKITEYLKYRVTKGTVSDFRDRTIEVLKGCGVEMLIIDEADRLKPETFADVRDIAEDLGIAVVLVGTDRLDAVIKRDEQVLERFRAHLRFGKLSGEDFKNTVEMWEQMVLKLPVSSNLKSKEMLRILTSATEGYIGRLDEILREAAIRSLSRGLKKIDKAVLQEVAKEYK

[3] = molecular target: TnsB (ShCAST transposase), wild type (Scytonema hofmannii); test: cryo-EM structure; ShCAST transpososome assembled stepwise on streptavidin beads through desthiobiotinylated target-pot DNA (Cas12k-sgRNA, S15, TniQ, TnsC, 1 mM ATP, then TnsB with donor-pot DNA), 37 °C, 20 mM HEPES pH 7.5, 250 mM KCl, 15 mM MgCl2, eluted with biotin; major (12 TnsC) and minor (13 TnsC) configurations from one data set
[4] = molecular target: TnsC (ShCAST AAA+ regulator) (Scytonema hofmannii); test: as above

T1 sequence (A0A8J0PCL3 entry or part of it): as above
T1 sequence (A0A979HMQ2 entry or part of it, further chain): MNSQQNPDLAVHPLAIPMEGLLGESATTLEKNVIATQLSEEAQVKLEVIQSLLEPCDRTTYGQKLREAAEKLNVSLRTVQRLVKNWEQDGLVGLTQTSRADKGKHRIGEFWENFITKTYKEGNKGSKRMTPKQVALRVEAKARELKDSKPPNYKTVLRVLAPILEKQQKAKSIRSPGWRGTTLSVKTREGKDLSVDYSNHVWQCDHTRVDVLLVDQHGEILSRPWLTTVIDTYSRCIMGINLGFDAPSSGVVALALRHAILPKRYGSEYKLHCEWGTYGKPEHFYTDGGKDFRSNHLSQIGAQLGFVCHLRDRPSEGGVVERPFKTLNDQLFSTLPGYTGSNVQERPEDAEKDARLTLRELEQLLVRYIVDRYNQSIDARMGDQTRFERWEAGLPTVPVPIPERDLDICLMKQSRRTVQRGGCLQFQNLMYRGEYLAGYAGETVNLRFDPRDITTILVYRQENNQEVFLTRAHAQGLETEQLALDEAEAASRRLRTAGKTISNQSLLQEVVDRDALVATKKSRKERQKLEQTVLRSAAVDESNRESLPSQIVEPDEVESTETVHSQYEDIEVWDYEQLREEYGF
T1 sequence (A0A8J0PCL5 entry or part of it, further chain): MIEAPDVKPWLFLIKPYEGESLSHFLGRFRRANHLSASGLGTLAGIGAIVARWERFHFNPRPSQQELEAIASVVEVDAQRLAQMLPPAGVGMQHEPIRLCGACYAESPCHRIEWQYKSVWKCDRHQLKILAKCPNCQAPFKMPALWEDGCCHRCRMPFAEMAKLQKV
T1 sequence (A0A8M0FGU0 entry or part of it, further chain): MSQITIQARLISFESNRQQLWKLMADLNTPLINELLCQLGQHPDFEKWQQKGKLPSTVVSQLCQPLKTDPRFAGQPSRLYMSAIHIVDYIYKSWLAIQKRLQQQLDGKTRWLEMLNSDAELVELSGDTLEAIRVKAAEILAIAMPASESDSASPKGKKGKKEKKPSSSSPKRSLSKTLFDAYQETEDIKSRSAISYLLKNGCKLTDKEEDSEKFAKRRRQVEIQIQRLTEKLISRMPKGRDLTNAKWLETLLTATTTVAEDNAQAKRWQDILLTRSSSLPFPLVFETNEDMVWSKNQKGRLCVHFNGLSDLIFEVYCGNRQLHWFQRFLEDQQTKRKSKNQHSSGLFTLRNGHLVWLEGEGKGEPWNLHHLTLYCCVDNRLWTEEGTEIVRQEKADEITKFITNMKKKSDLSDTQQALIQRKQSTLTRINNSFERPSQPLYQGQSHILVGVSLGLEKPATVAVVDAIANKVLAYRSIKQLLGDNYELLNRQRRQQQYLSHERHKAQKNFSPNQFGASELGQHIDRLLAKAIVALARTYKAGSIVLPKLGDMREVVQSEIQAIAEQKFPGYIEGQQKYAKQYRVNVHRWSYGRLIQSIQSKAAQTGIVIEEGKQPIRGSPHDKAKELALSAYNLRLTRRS

Compound: Nc1ncnc2c1ncn2[C@@H]1O[C@H](COP(=O)(O)OP(=O)(O)OP(=O)(O)O)[C@@H](O)[C@H]1O [ATP]
- cryo-EM structure [1]: This improved map demonstrates that ATP is bound to all protomers

Compound: TnsB (ShCAST transposase), wild type (enzyme)
- on-target percentage of in vitro transposition (Illumina sequencing), in the absence of S15 [2]: 69%
- on-target percentage of in vitro transposition (Illumina sequencing), with S15 [2]: 99%
- stoichiometry N [3]: 4

Compound: TnsB R432A (enzyme)
- on-target percentage of in vitro transposition (Illumina sequencing), in the absence of S15 [2]: < 6%

Compound: TnsB Y439A (enzyme)
- on-target percentage of in vitro transposition (Illumina sequencing), in the absence of S15 [2]: < 6%

Compound: TnsC (ShCAST AAA+ regulator) (natural protein)
- stoichiometry N [4]: 12 and 13
